From article PMC10862009, “Generation of antibodies to an extracellular region of the transporters Glut1/Glut4 by immunization with a designed antigen” (The Journal of Biological Chemistry, 2024)
Values belong to the binder of their own block, whether it stands above or below them.

How the values were obtained:
Anti-Glut4 VHH = target: T1, Anti-Glut4 VHH (alpaca); assay: ITC; 10 uM VHH in the cell; 100 uM fusion protein (or scaffold protein Adhiron-WT) titrated, 20 injections of 2 ul at intervals of 120 s; PBS pH 7.4, 25 °C; n = 3, mean ± s.e.m.; conditions: both partners purified
T1 construct: alpaca VHH; selected by phage display from an alpaca immunized with Adhiron-Glut4; also called the VHH; anti-Glut4 VHH antibody; source: E. coli BL21(DE3), purified (Ni-NTA, SEC)

[1] = target: T2, full-length Glut1 as a recombinant protein (Homo sapiens, UniProt P11166); assay: SPR; Biacore 8K; His-tagged Glut1 captured by anti-His antibodies on a CM5 chip; VHH injected at 123 nM-10 μM, single-cycle kinetics; 25 mM Mes-NaOH pH 6.0, 150 mM NaCl, 5% glycerol, 0.05% n-dodecyl-β-D-maltoside, 25 °C; conditions: both partners purified
T2 construct: glucose transporter 1 (Glut1), human, full length; also called glucose transporter 1; full-length Glut1 in micelles; source: High Five insect cells (baculovirus), purified (solubilised with n-dodecyl-β-D-maltopyranoside, Ni-NTA, SEC); not shown: His10, C-terminal, kept

Fc-VHH antibody of VHH5 [2] = target: T3, Fc-VHH antibody of VHH5 (alpaca); assay: flow cytometry on cells; Expi293 cells transfected with Glut1 against empty vector; 1 μM Fc-VHH with Alexa Fluor 488 anti-human IgG, on ice 60 min; conditions: one partner purified
T3 construct: as the VHH of m7; form used for flow cytometry; source: ExpiCHO, transfected, purified from the supernatant (rProtein A Sepharose, SEC); not shown: Fc (Fc region of trastuzumab), C-terminal, kept

Fc-VHH antibody of VHH4 [3] = target: T4, Fc-VHH antibody of VHH4 (alpaca); assay: as above; conditions: one partner purified
T4 construct: as the VHH of m6; form used for flow cytometry; source: ExpiCHO, transfected, purified from the supernatant (rProtein A Sepharose, SEC); not shown: Fc (Fc region of trastuzumab), C-terminal, kept

Fc-VHH antibody of VHH5 [4] = target: T3, Fc-VHH antibody of VHH5; assay: flow cytometry on cells; HCT116 cells with endogenous Glut1; 1 μM Fc-VHH with Alexa Fluor 488 anti-human IgG, on ice 60 min; conditions: one partner purified
Fc-VHH antibody of VHH4 [5] = target: T4, Fc-VHH antibody of VHH4; assay: as above; conditions: one partner purified

T1 sequence (VHH, as listed by the source): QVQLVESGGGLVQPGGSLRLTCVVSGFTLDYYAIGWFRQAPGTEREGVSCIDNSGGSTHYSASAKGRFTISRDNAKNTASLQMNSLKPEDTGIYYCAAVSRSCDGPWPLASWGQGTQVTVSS

B1: Adhiron-Glut4 (other)
chain: ENSLEIEELARFAVDEHNKKENALLEFVRVVKAKEQGGGGSAPQKVIEQSYNETWLGRQGPEGPSSIPPGTLTTLWALSVGGGGSTMYYLTLEAKDGGKKKLYEAKVWVKPWENFKELQEFKPV
modifications: Limits of the Glut4 graft are not printed: 47-85 is the homologue of Glut1 35-69 (two extracellular helices). Graft site is assumed to be as in Adhiron-Glut1: loop 47VVAG50 (entity 37-40, offset 10) …
Kd (Anti-Glut4 VHH): 3.67 nM | stoichiometry N (Anti-Glut4 VHH): 1.02

B2: VHH4 with a FLAG tag (VHH)
VHH: EVQLVESGGGLVQPGGSLRLSCAASGFTLDRYAIGWFRQAPGKEREGISCISSGSGSRVYADSVKGRFTVSRDNVENTVSLEMNSLKPEDTAVYYCAAEADYYCSGYPIYRKFGSWGQGTQVTVSS
notes: as the VHH of m6; Form prepared for SPR; source: E. coli BL21(DE3), purified (DDDDK-tagged Protein Purification Gel, SEC)
binding result [1]: binds

B5: endogenous Glut1 on HCT116 cells (natural protein, human (endogenous in HCT116), UniProt P11166 1-492, looked up)
chain: MEPSSKKLTGRLMLAVGGAVLGSLQFGYNTGVINAPQKVIEEFYNQTWVHRYGESILPTTLTTLWSLSVAIFSVGGMIGSFSVGLFVNRFGRRNSMLMMNLLAFVSAVLMGFSKLGKSFEMLILGRFIIGVYCGLTTGFVPMYVGEVSPTALRGALGTLHQLGIVVGILIAQVFGLDSIMGNKDLWPLLLSIIFIPALLQCIVLPFCPESPRFLLINRNEENRAKSVLKKLRGTADVTHDLQEMKEESRQMMREKKVTILELFRSPAYRQPILIAVVLQLSQQLSGINAVFYYSTSIFEKAGVQQPVYATIGSGIVNTAFTVVSLFVVERAGRRTLHLIGLAGMAGCAILMTIALALLEQLPWMSYLSIVAIFGFVAFFEVGPGPIPWFIVAELFSQGPRPAAIAVAGFSNWTSNFIVGMCFQYVEQLCGPYVFIIFTVLLVLFFIFTYFKVPETKGRTFDEIASGFRQGGASQSDKTPEELFHPLGADSQV
notes: glucose transporter 1 (Glut1), endogenous on the surface of HCT116 colon cancer cells; source: endogenous, on HCT116 cells
binding result (Fc-VHH antibody of VHH5 [4]): binds | binding result (Fc-VHH antibody of VHH4 [5]): binds

Second part, the binder after the results:

binding result [1]: binds
B3: VHH5 with a FLAG tag (VHH)
VHH: ELQLVESGGGLVQPGGSLRLSCAVSGVAFEDYAIGWFRQAPGKEREGVSCISSGSGSRIYTDSVKGRFTVSRDNPKNTVDLQMDSLKPEDTAVYYCAAERDYYCSGYPTYRAFSSWGEGTQVTVSS
notes: as the VHH of m7; Form prepared for SPR; source: E. coli BL21(DE3), purified (DDDDK-tagged Protein Purification Gel, SEC)

binding result (Fc-VHH antibody of VHH5 [2]): binds | binding result (Fc-VHH antibody of VHH4 [3]): binds
B4: Glut1 overexpressed on Expi293 cells (natural protein, human, UniProt P11166 1-492, looked up)
chain: MEPSSKKLTGRLMLAVGGAVLGSLQFGYNTGVINAPQKVIEEFYNQTWVHRYGESILPTTLTTLWSLSVAIFSVGGMIGSFSVGLFVNRFGRRNSMLMMNLLAFVSAVLMGFSKLGKSFEMLILGRFIIGVYCGLTTGFVPMYVGEVSPTALRGALGTLHQLGIVVGILIAQVFGLDSIMGNKDLWPLLLSIIFIPALLQCIVLPFCPESPRFLLINRNEENRAKSVLKKLRGTADVTHDLQEMKEESRQMMREKKVTILELFRSPAYRQPILIAVVLQLSQQLSGINAVFYYSTSIFEKAGVQQPVYATIGSGIVNTAFTVVSLFVVERAGRRTLHLIGLAGMAGCAILMTIALALLEQLPWMSYLSIVAIFGFVAFFEVGPGPIPWFIVAELFSQGPRPAAIAVAGFSNWTSNFIVGMCFQYVEQLCGPYVFIIFTVLLVLFFIFTYFKVPETKGRTFDEIASGFRQGGASQSDKTPEELFHPLGADSQV
notes: glucose transporter 1 (Glut1), human, on the surface of transfected Expi293 cells; also called Glut1 on the cell membrane; overexpressed Glut1; source: Expi293, transfected (pcDNA 3.4), on cells
